Reference: patent US20090304719A1 (University of California, published 2009)
Bridges are numbered along the chain shown (N, C = ends). Where no end group is shown, it is not given here. CPX = display scaffold, circularly permuted E. coli OmpX, fused C-terminal

Experiments:
VEGF [1] = target: T1, VEGF (UniProt P15692-4 27-191, limits assumed, biotinylated in the FACS assays (sites not given)); assay: Kd,app of VEGF binding to the clone displayed on E. coli, with MMP-2 against without (FIG. 14)
T1 construct: Species and isoform are never stated; also called labeled VEGF; biotinylated VEGF

anti-VEGF scFv TBM = target: T2, anti-VEGF scFv TBM; assay: FACS, peptide displayed on bacteria, anti-VEGF scFv; clones selected with labeled ranibizumab
T2 construct: The design included a His6 tag at the N-terminus and a TEV site; also called anti-VEGF single chain Fv
Procedure: Ranibizumab was used to screen a pooled random peptide library, consisting of peptides that are X₁₅ (8.3×10⁹), X₄CX₇CX₄ (3.6×10⁹), or X₁₂CX₃ (1.1×10⁹), where X is any amino acid and the number represents the total diversity of the library. The total diversity of the pooled library was 1.3×10¹⁰. The screening consisted of one round of MACS and […] of FACS sorting. […] In the first FACS screen, positive cells isolated in the MACS screen were probed with 500 nM biotinylated-ranibizumab, and visualized with neutrAvidin-PE (Molecular Probes, Eugene, Oreg.). The second and third rounds of FACS selections were done with 500 nM and then 100 nM Alexa-labeled ranibizumab in the presence of 20 uM IgG. Individual clones were sequenced and subsequently verified for their ability to bind anti-VEGF scfv by FACS analysis.

VEGF [2] = target: T1, VEGF; assay: FACS, clone displayed on E. coli (CPX), labeled VEGF; with MMP-2 against without (FIG. 23)
Procedure: (§1) In experiments involving addition of enzyme, 30 nM MMP-2 was included in the Tris-Cl buffer (no enzyme added to the control reaction), and the reaction mixture was incubated at room temperature for 2 hours. Cells were then removed and diluted 1:100 in PBS (pH 7.4) to stop the reaction, pelleted by centrifugation, and resuspended in 30 microliters of refrigerated PBS containing 25 nM biotinylated VEGF. After incubation in the refrigerator on a rotary shaker for 45 minutes, cells were pelleted at 4° C. and resuspended in refrigerated PBS containing 50 nM Streptavidin-Phycoerythrin fluorescent conjugate. After incubation in the refrigerator on a rotary shaker for 45 minutes, cells were pelleted at 4° C. and resuspended in PBS and red fluorescence was measured for analysis or sorting on a FACSAria cell sorter. The fluorescence of cells treated with enzyme was compared to control samples to determine the increase in VEGF binding.
(§2) In an additional experiment, the fluorescence values for a cysteine constrained loop structure were determined in the presence and absence of MMP-2 and compared with the fluorescence values for library clones 4.2A.11 (a.k.a. 4-2A-11) and 2.3B.5 (a.k.a. 2-3B-5) in the presence and absence of MMP-2.

VEGF [3] = target: T1, VEGF; assay: SPR (Biacore), VEGF amine-coupled to a CM5 chip, soluble MBP fusion injected with and without 30 nM MMP-2 (FIG. 27)
Procedure: VEGF was immobilized to the Biacore™ CM5 sensor chip surface using the standard amine coupling kit. An NHS/EDC mixture was injected first to activate the surface using the surface preparation wizard in the Biacore™ software. Then, 25 ug/mL concentration of VEGF was injected until the desired immobilization amount was reached (typically ˜5000 response units). The surface is then blocked with ethanolamine. A control reaction was performed on another surface with NHS/EDC then Ethanolamine.
After the VEGF is covalently immobilized, the maltose-binding protein (MBP) fusions of VEGF binding or VEGF binding ABP clones were injected over both the VEGF surface and the control surface. Injections were typically for 1 minute, with a few minutes of dissociation time after each injection. The clones were injected both with and without 30 nM MMP-2 enzyme. For analysis, the signal on the VEGF surface minus the signal on the control surface is the binding response (in RU).

VEGF [4] = target: T1, VEGF; assay: FACS, construct displayed on E. coli (CPX), labeled VEGF; treated against untreated
VEGF [5] = target: T1, VEGF; assay: FACS, construct displayed on E. coli (CPX), labeled VEGF; with MMP-2 against without (FIG. 23)
Procedure: as §1, §2

VEGF [6] = target: T1, VEGF; assay: Kd,app of VEGF binding to the construct displayed on E. coli, with MMP-2 against without (FIG. 13)
VEGF [7] = target: T1, VEGF; assay: FACS, ABP displayed on E. coli (CPX), labeled VEGF; MMP-2 treated against untreated
Procedure: as §1

VEGF [8] = target: T1, VEGF; assay: FACS, construct displayed on E. coli (CPX), labeled VEGF; MMP-2 treated against untreated (FIG. 25)
Procedure: as §1

[9] = target: T3, UC4F10-11 hamster anti-mouse CTLA4 antibody; assay: bacterial display screening against anti-CTLA4 antibody; assay for this peptide not detailed
T3 construct: Whole antibody, biotinylated or Dylight-labeled in the sorts; also called mouse anti-CTLA4 antibody (clone UC4 F10-1); anti-CTLA4
T3 sequence (VH, as listed by the source limits assumed, chain 1 of 2): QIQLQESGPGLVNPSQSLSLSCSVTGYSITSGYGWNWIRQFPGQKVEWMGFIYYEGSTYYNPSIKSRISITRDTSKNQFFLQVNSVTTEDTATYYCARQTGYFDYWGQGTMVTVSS
T3 sequence (VL, as listed by the source limits assumed, chain 2 of 2): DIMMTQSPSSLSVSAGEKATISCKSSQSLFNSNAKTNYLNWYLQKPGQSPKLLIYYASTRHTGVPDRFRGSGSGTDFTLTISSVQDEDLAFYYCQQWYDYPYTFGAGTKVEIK

T1 sequence (P15692 other isoform, or with tags, fused parts or gaps limits assumed): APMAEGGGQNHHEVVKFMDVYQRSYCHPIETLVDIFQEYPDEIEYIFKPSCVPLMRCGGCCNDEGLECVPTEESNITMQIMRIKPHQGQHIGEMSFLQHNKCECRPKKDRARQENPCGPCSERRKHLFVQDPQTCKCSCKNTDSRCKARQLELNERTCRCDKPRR
T2 sequence (scFv, as listed by the source): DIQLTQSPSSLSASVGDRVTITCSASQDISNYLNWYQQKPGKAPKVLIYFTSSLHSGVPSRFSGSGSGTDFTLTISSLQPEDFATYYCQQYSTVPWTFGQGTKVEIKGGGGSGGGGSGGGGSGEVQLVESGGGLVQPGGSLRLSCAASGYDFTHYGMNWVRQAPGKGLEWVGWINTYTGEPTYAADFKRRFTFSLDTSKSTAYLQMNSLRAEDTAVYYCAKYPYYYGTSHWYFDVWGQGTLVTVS

B1: ABP library clone 2-2A-5 (designed binder)
chain: GQSGQPEWGCGPLGLAGGGSGNFGYGKWEWDYGKWLEKVGGC-{CPX}
modifications: disulfide 10-42 (inferred); also: fused C-terminal to CPX display scaffold, letters not given here
notes: Tested untreated, after MMP-2 and after DTT; not shown: CPX display scaffold (circularly permuted E. coli OmpX), fused C-terminal of the ABP
- fold improvement in Kd,app in the presence of MMP-2 (VEGF [1]): ~4.8 fold

B2: JS308 (peptide)
peptide: NVECCQNYNLWNCCGGR
notes: also called 308 MM
- binding result (anti-VEGF scFv TBM): binds

B3: JS306 (peptide)
peptide: PCSEWQSMVQPRCYYGG
- binding result (anti-VEGF scFv TBM): binds

B4: JS311 (peptide)
peptide: VHAWEQLVIQELYHC
notes: also called 311 MM
- binding result (anti-VEGF scFv TBM): binds

B5: JS283 (peptide)
peptide: ATAVWNSMVKQSCYMQG
notes: also called 283 MM
- binding result (anti-VEGF scFv TBM): binds

B6: ABP library clone 4-2A-11 (designed binder)
chain: GQSGQGEDEEGPLGLAGGGSGNFGYGKWEWDYGKWLEKVGGG
notes: not shown: CPX display scaffold (circularly permuted E. coli OmpX), fused C-terminal of the ABP
- fold increase in fluorescence in the presence of MMP-2 (VEGF [2]): ~5.7 fold

B7: JS315 (peptide)
peptide: GAMACYNIFEYWCSAMK
notes: also called 315 MM
- binding result (anti-VEGF scFv TBM): binds

B8: JS314 (peptide)
peptide: RPPCCRDYSILECCKSD
- binding result (anti-VEGF scFv TBM): binds

B9: maltose-binding protein (MBP) fusion of ABP clone 2.3B.5 (designed binder, not shown: large carriers; small tags and cut ends)
chain: CEYAFGPLGLAGGGSGNFGYGKWEWDYGKWLEKVGGC
modifications: also: fusion with maltose-binding protein (order not certain), disulfide Cys1–C-terminal Cys possible
notes: Soluble protein; the order MBP then ABP is my reading and is not certain; also called 2.3B.5 (2-3B-5) fusion; MBP-ABP fusion
- fold increase in binding response in the presence of MMP-2 (VEGF [3]): ~4 fold

B10: cysteine constrained loop ABP (designed binder)
chain: GQSGQGCGSGPLGLAGGGSGNFGYGKWEWDYGKWLEKVGGC-{CPX}
modifications: disulfide 7-41 (inferred); also: fused C-terminal to CPX display scaffold, letters not given here
notes: Tested untreated, after MMP-2 treatment and after DTT reduction; also called cysteine constrained parent; cysteine constrained loop structure; not shown: CPX display scaffold (circularly permuted E. coli OmpX), fused C-terminal of the ABP
- fold switching activity (VEGF [4]): 2 fold
- fold increase in fluorescence in the presence of MMP-2 (VEGF [5]): ~3 fold
- fold improvement in Kd,app in the presence of MMP-2 (VEGF [6]): ~3.4 fold
- fold increase in fluorescence after MMP-2 treatment (VEGF [7]): ~2.6 fold

B11: JS313 (peptide)
peptide: GVGLCYTILEQWCEMGR
notes: also called 313 MM
- binding result (anti-VEGF scFv TBM): binds

B12: GS control (designed binder)
chain: GQSGQGGSGGSGGSGGSGGSPLGLAGGGSGNFGYGKWEWDYGKWLEKVGGG
modifications: also: fused C-terminal to CPX display scaffold, letters not given here
notes: Control lacking the cysteine-cysteine disulfide bond; also called GS control polypeptide; not shown: CPX display scaffold (circularly permuted E. coli OmpX), fused C-terminal of the construct
- fold increase in fluorescence after enzyme cleavage (VEGF [8]): < 2 fold

B13: Negative control MM (does not bind anti-CTLA4) (peptide)
peptide: PCSEWQSMVQPRCYY
notes: also called MMneg
- binding result [9]: no binding

B14: JS292 (peptide)
peptide: GHGMCYTILEDHCDRVR
notes: also called 292 MM
- binding result (anti-VEGF scFv TBM): binds
